Assay results taken from patent US6890738.

Target: prolactin receptor on Nb2 T lymphoma cells (rat) (UniProt P05710)
Assay: cell-based or functional assay

Sequence of UniProt P05710 (P05710 20-610): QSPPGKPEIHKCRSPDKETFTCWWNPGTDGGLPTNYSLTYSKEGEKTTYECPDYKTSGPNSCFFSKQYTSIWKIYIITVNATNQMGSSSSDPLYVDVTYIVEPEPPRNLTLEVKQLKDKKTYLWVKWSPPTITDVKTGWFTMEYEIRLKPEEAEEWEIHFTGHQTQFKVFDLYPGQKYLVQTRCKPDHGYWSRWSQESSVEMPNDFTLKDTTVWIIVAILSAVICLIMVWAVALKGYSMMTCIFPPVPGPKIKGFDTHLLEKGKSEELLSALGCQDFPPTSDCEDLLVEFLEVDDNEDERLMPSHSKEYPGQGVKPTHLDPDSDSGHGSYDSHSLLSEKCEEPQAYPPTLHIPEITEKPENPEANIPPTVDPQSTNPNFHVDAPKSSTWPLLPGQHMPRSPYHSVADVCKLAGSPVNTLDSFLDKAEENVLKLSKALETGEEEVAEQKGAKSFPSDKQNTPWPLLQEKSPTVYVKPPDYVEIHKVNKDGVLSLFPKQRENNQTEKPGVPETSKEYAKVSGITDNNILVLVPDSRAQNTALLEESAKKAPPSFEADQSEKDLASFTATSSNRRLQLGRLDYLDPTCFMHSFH

For “human prolactin aspartate mutant (serine 179 substituted with aspartate) (from UniProt P01236 29-227) (ligand)”, the inhibition of the Nb2 cell growth response to 400 pg/ml wild-type PRL by 200 pg/ml aspartate mutant (MTS assay) was 75%.

With “human prolactin glutamate mutant (serine 179 substituted with glutamate) (from UniProt P01236 29-227) (ligand)” the reduction of the Nb2 cell growth response to 800 pg/ml wild-type PRL by 200 pg/ml glutamate mutant (MTS assay) (fraction of growth response) was 0.5.
